Measurements from the supplement of paper PMC10724198.

Experiments:
Saccharomyces cerevisiae [1] = assay: protein stability index of tFT-peptide fusion in deletion strain of DOA10 (PSI (0-1 scale)); higher = more stable (slower turnover)
Description: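 MPS profiling in S. cerevisiae of two library types built from selected 12-aa C-degron peptides (IN1, IN2, LN1, LN3, VN2, R1-R5, W1-W3, Atg1 and Rpa12 C-termini): saturation mutagenesis libraries and C-terminal +1 capping libraries (13 aa). Each peptide is fused to the C-terminus of a sfGFP-mCherry timer, after a GGGS linker. Cells are FACS-sorted into 8 mCherry/sfGFP bins and sequenced. PSI runs from 0 (unstable) to 1 (stable), measured once in wild type and in the das1Δ or doa10Δ background.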

Saccharomyces cerevisiae [2] = assay: protein stability index of tFT-peptide fusion in wild type (PSI (0-1 scale)); higher = more stable (slower turnover); conditions: genetic background: wild type
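Throughout, for protein stability index of tFT-peptide fusion in deletion strain of DOA10: PSI per variant is the weighted mean of its sequencing read distribution over the sorted stability bins, counting only variants with over 10 reads summed across bins.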
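Throughout, for protein stability index of tFT-peptide fusion in wild type: PSI derived as read-weighted mean over the 8 sorting bins, only variants exceeding 10 total reads kept, mCherry placed adjacent to the peptide and sfGFP distal.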

Sequence	protein stability index (Saccharomyces cerevisiae [1])	protein stability index (Saccharomyces cerevisiae [2])
CLVQLPILLFFR	0.597	0.0481
CLVSKPILLFFR	0.627	0.17
CLVSLCILLFFR	0.334	0.23
CLVSLLILLFFR	0.408	0.319
CLVSLNILLFFR	0.323	0.17
CLVSLPIELFFR	0.656	0.596
CLVSLPIKLFFR	0.652	0.123
CLVSLPILCFFR	0.558	0.0771
CLVSLPILLFFC	0.249	0.0908
CLVSLPILLFFK	0.577	0.0574
CLVSLPILLFFW	0.435	0.252
CLVSLPILLFNR	0.588	0.394
CLVSLPILLFVR	0.249	0.0446
CLVSLPILLIFR	0.537	0.0669
CLVSLPMLLFFR	0.626	0.0605
CLVSLPWLLFFR	0.65	0.144
CLVSNPILLFFR	0.661	0.368
CLVSQPILLFFR	0.628	0.227
CLVVLPILLFFR	0.451	0.0796
GLQMCSVGCWFR	0.656	0.195
GLTMCSVGCWFR	0.674	0.219
GLVMCSVGCWFR	0.45	0.19
GLYGCSVGCWFR	0.683	0.504
GLYHCSVGCWFR	0.674	0.409

Sequence	protein stability index (Saccharomyces cerevisiae [1])	protein stability index (Saccharomyces cerevisiae [2])
GLYMASVGCWFR	0.684	0.322
GLYMCMVGCWFR	0.462	0.25
GLYMCSDGCWFR	0.718	0.65
GLYMCSGGCWFR	0.687	0.47
GLYMCSSGCWFR	0.679	0.435
GLYMCSVGCDFR	0.663	0.641
GLYMCSVGCPFR	0.677	0.642
GLYMCSVGCWFC	0.287	0.261
GLYMCSVGCWFH	0.497	0.401
GLYMCSVGCWFN	0.343	0.29
GLYMCSVGCWFRD	0.649	0.431
GLYMCSVGCWFRR	0.646	0.347
GLYMCSVGCWFW	0.453	0.333
GLYMCSVGCWHR	0.722	0.668
GLYMCSVGNWFR	0.683	0.611
GLYMCSVGRWFR	0.668	0.643
GLYMESVGCWFR	0.703	0.415
ILYMCSVGCWFR	0.486	0.289
IVTRLDAIYFRI	0.612	0.24
RATRLDAIYFRI	0.681	0.493
RHLRVLLPLYFR	0.678	0.277
RITLPMCPLLLR	0.651	0.296
RMTRLDAIYFRI	0.655	0.429
RNTRLDAIYFRI	0.664	0.529

Sequence	protein stability index (Saccharomyces cerevisiae [1])	protein stability index (Saccharomyces cerevisiae [2])
RSFRVLLPLYFR	0.612	0.162
RSIRVLLPLYFR	0.643	0.225
RSLRVELPLYFR	0.685	0.17
RSLRVLIPLYFR	0.639	0.23
RSLRVLLPLCFR	0.687	0.405
RSLRVLLPLFFR	0.681	0.38
RSLRVLLPLMFR	0.654	0.288
RSLRVLLPLYER	0.658	0.645
RSLRVLLPLYFA	0.413	0.286
RSLRVLLPLYFH	0.583	0.365
RSLRVLLPLYFRD	0.647	0.346
RSLRVLLPLYFRK	0.593	0.293
RSLRVLLPLYFRL	0.496	0.194
RSLRVLLPLYFY	0.435	0.263
RSLRVLLPLYNR	0.666	0.623
RSLRVLLPPYFR	0.689	0.658
RSLRVLLPQYFR	0.689	0.642
RSLRVLLPYYFR	0.678	0.545
RSLRVNLPLYFR	0.672	0.18
RSLRVPLPLYFR	0.687	0.113
RSYRVLLPLYFR	0.637	0.217
RVDRLDAIYFRI	0.639	0.559
RVHRLDAIYFRI	0.659	0.438
RVNRLDAIYFRI	0.659	0.48

Sequence	protein stability index (Saccharomyces cerevisiae [1])	protein stability index (Saccharomyces cerevisiae [2])
RVRRLDAIYFRI	0.641	0.385
RVTCLDAIYFRI	0.655	0.477
RVTRCDAIYFRI	0.677	0.467
RVTRLDACYFRI	0.707	0.532
RVTRLDAILFRI	0.705	0.453
RVTRLDAIYFKI	0.595	0.352
RVTRLDAIYFRA	0.697	0.608
RVTRLDAIYFRIA	0.136	0.0756
RVTRLDAIYFRII	0.127	0.0611
RVTRLDAKYFRI	0.709	0.673
RVTRLDAMYFRI	0.698	0.549
RVTRLDARYFRI	0.718	0.667
RVTRLEAIYFRI	0.62	0.268
RVTRLHAIYFRI	0.372	0.172
RVTRLIAIYFRI	0.348	0.168
RVTRLKAIYFRI	0.32	0.155
RVTRLPAIYFRI	0.636	0.217
RVTRLTAIYFRI	0.351	0.172
RVTRLYAIYFRI	0.294	0.134
TSLRVLLPLYFR	0.654	0.294
WLVSLPILLFFR	0.518	0.105
